Paper PMC6915088, “Biosynthesis of the Stress-Protectant and Chemical Chaperon Ectoine: Biochemistry of the Transaminase EctB” (Frontiers in Microbiology, 2019)
Changes are numbered by the printed parent chain.

B1: (Pl)EctB, L-2,4-diaminobutyrate transaminase EctB from Paenibacillus lautus (enzyme, Paenibacillus lautus strain Y412MC10, UniProt A0A385TGF8 1-430, looked up)
chain: MDNQVMEKPKLTVFNKLESEVRSYCRSFQTVFDKARNAKLWDTQGNEYIDFFAGAGALNYGHNNERIREKLVDYILQDGVTHSLDMATGAKETFLTRFQEIILKPRGWDHKVMFPGPTGTNAVEAALKIARKVTGRSTVLCFTNAFHGMSLGSLAVTGNAFKRQGAGVDLSHSVFMPYDGYFGSDVDTMAYMEKLLDDPGSGIPLPAAVIVEAVQGEGGLNAASRQWLQKLARICKDKGMLLILDDIQMGCGRTGSFFSFDDAGIEPDIVCLSKSIGGFGLPMAITLIKPEIDIWEPGEHNGTFRGNNLGFVAAAEALSYWKTEEFQLDIGIREHRIRQSLENVVREYPRLGGEIRGRGMIQGVAFDKPEHAGRLSEIAFEQGLIMETSGPHSEVAKLMPPLTIEMNTLAEGLGIFENSMKQLAAEERLS
notes: EctB (L-2,4-diaminobutyrate transaminase) of Paenibacillus lautus strain Y412MC10; codon-optimized synthetic ectB gene; calculated mass 49.1 kDa including the Strep-tag II peptide and linker; The protein was purified as an apo-protein without PLP; also called (Pl)EctB wild-type protein; P. lautus EctB; not shown: Strep-tag II, N-terminal, kept
B2: (Pl)EctB Lys274/His variant (enzyme, Paenibacillus lautus strain Y412MC10, UniProt A0A385TGF8 1-430, looked up)
chain: B1 chain with K274H
notes: EctB (L-2,4-diaminobutyrate transaminase) of Paenibacillus lautus strain Y412MC10; codon-optimized synthetic ectB gene with Lys274 changed to His (AAA/CAT) by site-directed mutagenesis of pAR8; not shown: Strep-tag II, N-terminal, kept

How the values were obtained:
(Pl)EctB = target: T1, (Pl)EctB (Paenibacillus lautus, UniProt A0A385TGF8); assay: activation of apo-enzyme by added PLP, L-glutamate formation by HPLC; type: biochemical; conditions: 10 mM DAB, 15 mM 2-oxoglutarate, 100 mM Tris-HCl pH 7.0, 100 mM NaCl, 45 °C, 1 min; titration curve only, no constant; Schiff base at Lys274 inferred
T1 construct: full length; N-terminal Strep-tag II (WSHPQFEK) with linker SGMIEGR (factor Xa site), plasmid pAR8; no tag removal described; E. coli BL21; homotetramer; purified as apo-protein, PLP added

[1] = target: the molecule itself; assay: SEC-MALS; S200 300/10 GL analytical column with MALS and RI detectors, 4°C; 100 μL sample at 100 μM protein; 20 mM HEPES pH 7.5, 200 mM NaCl, 20 mM MgCl2, 20 mM KCl

Molecule | activation of apo-enzyme by added PLP, L-glutamate formation by HPLC ((Pl)EctB) | stoichiometry N [1]
Cc1ncc(COP(=O)(O)O)c(C=O)c1O [PLP] | the specific activity of (Pl)EctB strictly relies on the addition of PLP | –
B1 | – | 4
B2 | – | 4
